# From patent US20070287163A1 (CRUCELL HOLLAND B V, published 2007)
# T1: CD46 (human (HEp-2 cells), UniProt P15529)
# T1 construct: endogenous, cell-surface biotinylated, solubilised in Triton X-100 lysate; The bands in the CR2300 lane were not separately identified
# T1 sequence (antigen, looked up): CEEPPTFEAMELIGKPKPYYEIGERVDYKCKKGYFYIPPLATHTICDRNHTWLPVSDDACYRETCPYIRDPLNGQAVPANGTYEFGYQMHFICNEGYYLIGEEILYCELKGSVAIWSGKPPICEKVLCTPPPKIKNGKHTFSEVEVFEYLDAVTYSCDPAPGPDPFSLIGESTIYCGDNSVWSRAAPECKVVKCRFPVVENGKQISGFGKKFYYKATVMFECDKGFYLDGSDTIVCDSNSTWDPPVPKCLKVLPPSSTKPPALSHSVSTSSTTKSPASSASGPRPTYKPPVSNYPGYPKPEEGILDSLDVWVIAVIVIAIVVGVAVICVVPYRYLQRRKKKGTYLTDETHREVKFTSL
# B1: CR2407 IgG1 (antibody, V domains shown)
# VH: EVQLVESGGGLVQPGGSLRLSCAASGFTFSSYAMSWVRQAPGKGLEWVSAISGSGGSTYYADSVKGRFTISRDNSKDTLYLQMSSLKTEDTAVYYCARGSLLQFWGQGTLVTVSS
# VL: SSELTQDPAVSVALGQTVRITCQGDSLRSYYASWYQQKPGQAPVLVIYGKNNRPSGIPDRFSGSSSGNTASLTITGAQAEDEADYYCNSRDSSGNHVVFGGGTKLTVLG
# notes: also called anti-ALCAM IgG1
# Target: T1, CD46
# Assay: immunoprecipitation from surface-biotinylated HEp-2 lysate, streptavidin-HRP blot
# Description: To identify whether CR2407 reacted with a membrane extractable antigen, the cell surface of 10⁸ HEp-2 cells were biotinylated during 1 hour at room temperature with a final concentration of 2 mg sulfo-NHS-LC-LC-biotin in physiological buffer (0.2 M phosphate buffer containing 0.12 M NaCl, pH 7.4). Subsequently, the remaining free biotin was blocked during an incubation of 30 minutes at room temperature with 10 mM glycine in physiological buffer. After labeling, the cells were washed with cold physiological buffer and solubilized for 30 minutes on ice at a concentration of 3×10⁷ cells/ml in TX-100 lysis buffer (1% Triton X-100, 150 mM NaCl, 50 mM Tris pH 7.4, protease inhibitors (Roche)). The unsoluble material was removed by centrifugation for 30 minutes at 4° C. at 20,000*g.
# Hereafter, the biotinylated solubilized lysates were pre-cleared with protein-A beads for 2 hours at 4° C. 4 μg of CR2407 and the negative control antibody CR2428 and positive control antibody CR2300 (directed against CD46) were coupled to protein A beads at room temperature. Next, the pre-cleared samples were incubated with the above IgG's coupled to protein-A beads for 2 hours at 4° C. […] After blotting on PVDF membranes, the biotinylated proteins were detected with streptavidin-HRP (Amersham) and enhanced chemoluminescence (Amersham).
binder,measurement,value
B1,binding result,no binding (tested: 4 ug IgG on protein-A beads)
